From patent US20200207857A1 come the findings set out here.

B1: h5C9a (antibody, V domains shown)
VH: EVQLVESGGGLVQPGGSLRLSCAASGYTFTNYGMNWVRQAPGKGLEWVAWINMYTGEPTYADDFKGRFTISRDDSKNTLYLQMNSLRAEDTAVYYCARLYNGNSLDYWGQGTLVTVSS
VL: DIQMTQSPSSLSASVGDRVTITCKSSQSLLNSGNQKSYLTWYQQKPGKAPKLLIYWASTLESGVPSRFSGSGSGTDFTLTISSLQPEDFATYYCQNAYSFPFTFGQGTKVEIK
B2: h5C9os (antibody, V domains shown)
VH: EVQLVESGGGLVQPGGSLRLSCAVSGYTFSMNWVRQAPGKGLEWVAWINMYTGEPTYADDFKGRFTISRDDSKNTLYLQMNSLRAEDTAVYYCARTGTGNTMDYWGQGTLVTVSS
VL: DIQMTQSPSSLSASVGDRVTITCKSSQSLLNSGNQKSYLTWYQQKPGKAPKLLIYWASTLESGVPSRFSGSGSGTDYTLTISSLQPEDFATYYCQNAYSFPFTFGQGTKVEIK
B3: h5C9or (antibody, V domains shown)
VH: EVQLVESGGGLVQPGGSLRLSCAVSGYTFSMNWVRQAPGKGLEWVAWINMYTGEPTYADDFKGRFTISRDDSKNTLYLQMNSLRAEDTAVYYCARLNRGNSMDYWGQGTLVTVSS
VL: DIQMTQSPSSLSASVGDRVTITCKSSQSLLNSGNQKSYLTWYQQKPGKAPKLLIYWASTLESGVPSRFSGSGSGTDYTLTISSLQPEDFATYYCQNAYSFPFTFGQGTKVEIK
B4: h5C9oz (antibody, V domains shown)
VH: EVQLVESGGGLVQPGGSLRLSCAVSGYTFSMNWVRQAPGKGLEWVAWINMYTGEPTYADDFKGRFTISRDDSKNTLYLQMNSLRAEDTAVYYCARLSRGNSLDYWGQGTLVTVSS
VL: DIQMTQSPSSLSASVGDRVTITCKSSQSLLNSGNQKSYLTWYQQKPGKAPKLLIYWASTLESGVPSRFSGSGSGTDYTLTISSLQPEDFATYYCQNAYSFPFTFGQGTKVEIK
B5: h5C9on (antibody, V domains shown)
VH: EVQLVESGGGLVQPGGSLRLSCAVSGYTFSMNWVRQAPGKGLEWVAWINMYTGEPTYADDFKGRFTISRDDSKNTLYLQMNSLRAEDTAVYYCARTAPGNGFDYWGQGTLVTVSS
VL: DIQMTQSPSSLSASVGDRVTITCKSSQSLLNSGNQKSYLTWYQQKPGKAPKLLIYWASTLESGVPSRFSGSGSGTDYTLTISSLQPEDFATYYCQNAYSFPFTFGQGTKVEIK
B6: h5C9ou (antibody, V domains shown)
VH: EVQLVESGGGLVQPGGSLRLSCAVSGYTFSMNWVRQAPGKGLEWVAWINMYTGEPTYADDFKGRFTISRDDSKNTLYLQMNSLRAEDTAVYYCARLSKGNGMDYWGQGTLVTVSS
VL: DIQMTQSPSSLSASVGDRVTITCKSSQSLLNSGNQKSYLTWYQQKPGKAPKLLIYWASTLESGVPSRFSGSGSGTDYTLTISSLQPEDFATYYCQNAYSFPFTFGQGTKVEIK
B7: h5C9oap (antibody, V domains shown)
VH: EVQLVESGGGLVQPGGSLRLSCAVSGYTFSMNWVRQAPGKGLEWVAWINMYTGERTYADDFKGRFTISRDDSKNTLYLQMNSLRAEDTAVYYCARLYNGNSLDYWGQGTLVTVSS
VL: DIQMTQSPSSLSASVGDRVTITCKSSQSLLNWGNQKSYLTWYQQKPGKAPKLLIYWASTLQSGVPSRFSGSGSGTDYTLTISSLQPEDFATYYCQNAYSFPFTFGQGTKVEIK
B8: h5C9ot (antibody, V domains shown)
VH: EVQLVESGGGLVQPGGSLRLSCAVSGYTFSMNWVRQAPGKGLEWVAWINMYTGEPTYADDFKGRFTISRDDSKNTLYLQMNSLRAEDTAVYYCARSSMGNGFDYWGQGTLVTVSS
VL: DIQMTQSPSSLSASVGDRVTITCKSSQSLLNSGNQKSYLTWYQQKPGKAPKLLIYWASTLESGVPSRFSGSGSGTDYTLTISSLQPEDFATYYCQNAYSFPFTFGQGTKVEIK
B9: h5C9om (antibody, V domains shown)
VH: EVQLVESGGGLVQPGGSLRLSCAVSGYTFSMNWVRQAPGKGLEWVAWINMYTGEPTYADDFKGRFTISRDDSKNTLYLQMNSLRAEDTAVYYCARLARGNGFDYWGQGTLVTVSS
VL: DIQMTQSPSSLSASVGDRVTITCKSSQSLLNSGNQKSYLTWYQQKPGKAPKLLIYWASTLESGVPSRFSGSGSGTDYTLTISSLQPEDFATYYCQNAYSFPFTFGQGTKVEIK
B10: h5C9op (antibody, V domains shown)
VH: EVQLVESGGGLVQPGGSLRLSCAVSGYTFSMNWVRQAPGKGLEWVAWINMYTGEPTYADDFKGRFTISRDDSKNTLYLQMNSLRAEDTAVYYCARTSRGNGMDYWGQGTLVTVSS
VL: DIQMTQSPSSLSASVGDRVTITCKSSQSLLNSGNQKSYLTWYQQKPGKAPKLLIYWASTLESGVPSRFSGSGSGTDYTLTISSLQPEDFATYYCQNAYSFPFTFGQGTKVEIK
B11: h5C9ox (antibody, V domains shown)
VH: EVQLVESGGGLVQPGGSLRLSCAVSGYTFSMNWVRQAPGKGLEWVAWINMYTGEPTYADDFKGRFTISRDDSKNTLYLQMNSLRAEDTAVYYCARASRGNGMDYWGQGTLVTVSS
VL: DIQMTQSPSSLSASVGDRVTITCKSSQSLLNSGNQKSYLTWYQQKPGKAPKLLIYWASTLESGVPSRFSGSGSGTDYTLTISSLQPEDFATYYCQNAYSFPFTFGQGTKVEIK
B12: h5C9ow (antibody, V domains shown)
VH: EVQLVESGGGLVQPGGSLRLSCAVSGYTFSMNWVRQAPGKGLEWVAWINMYTGEPTYADDFKGRFTISRDDSKNTLYLQMNSLRAEDTAVYYCARLTKGNGMDYWGQGTLVTVSS
VL: DIQMTQSPSSLSASVGDRVTITCKSSQSLLNSGNQKSYLTWYQQKPGKAPKLLIYWASTLESGVPSRFSGSGSGTDYTLTISSLQPEDFATYYCQNAYSFPFTFGQGTKVEIK
B13: h5C9oo (antibody, V domains shown)
VH: EVQLVESGGGLVQPGGSLRLSCAVSGYTFSMNWVRQAPGKGLEWVAWINMYTGEPTYADDFKGRFTISRDDSKNTLYLQMNSLRAEDTAVYYCARLVRGNGFDYWGQGTLVTVSS
VL: DIQMTQSPSSLSASVGDRVTITCKSSQSLLNSGNQKSYLTWYQQKPGKAPKLLIYWASTLESGVPSRFSGSGSGTDYTLTISSLQPEDFATYYCQNAYSFPFTFGQGTKVEIK
B14: h5C9oaa (antibody, V domains shown)
VH: EVQLVESGGGLVQPGGSLRLSCAVSGYTFSMNWVRQAPGKGLEWVAWINMYTGEPTYADDFKGRFTISRDDSKNTLYLQMNSLRAEDTAVYYCARLVRGNGMDYWGQGTLVTVSS
VL: DIQMTQSPSSLSASVGDRVTITCKSSQSLLNSGNQKSYLTWYQQKPGKAPKLLIYWASTLESGVPSRFSGSGSGTDYTLTISSLQPEDFATYYCQNAYSFPFTFGQGTKVEIK
B15: h5C9ok (antibody, V domains shown)
VH: EVQLVESGGGLVQPGGSLRLSCAVSGYTFSMNWVRQAPGKGLEWVAWINMYTGEPTYADDFKGRFTISRDDSKNTLYLQMNSLRAEDTAVYYCARLTRGNSLDYWGQGTLVTVSS
VL: DIQMTQSPSSLSASVGDRVTITCKSSQSLLNSGNQKSYLTWYQQKPGKAPKLLIYWASTLESGVPSRFSGSGSGTDYTLTISSLQPEDFATYYCQNAYSFPFTFGQGTKVEIK
B16: h5C9ol (antibody, V domains shown)
VH: EVQLVESGGGLVQPGGSLRLSCAVSGYTFSMNWVRQAPGKGLEWVAWINMYTGEPTYADDFKGRFTISRDDSKNTLYLQMNSLRAEDTAVYYCARLGPGNVFDYWGQGTLVTVSS
VL: DIQMTQSPSSLSASVGDRVTITCKSSQSLLNSGNQKSYLTWYQQKPGKAPKLLIYWASTLESGVPSRFSGSGSGTDYTLTISSLQPEDFATYYCQNAYSFPFTFGQGTKVEIK
B17: h5C9oy (antibody, V domains shown)
VH: EVQLVESGGGLVQPGGSLRLSCAVSGYTFSMNWVRQAPGKGLEWVAWINMYTGEPTYADDFKGRFTISRDDSKNTLYLQMNSLRAEDTAVYYCARSSKGNGLDYWGQGTLVTVSS
VL: DIQMTQSPSSLSASVGDRVTITCKSSQSLLNSGNQKSYLTWYQQKPGKAPKLLIYWASTLESGVPSRFSGSGSGTDYTLTISSLQPEDFATYYCQNAYSFPFTFGQGTKVEIK
B18: h5C9n (antibody, V domains shown)
VH: EVQLVESGGGLVQPGGSLRLSCAVSGYTFTNYGMNWVRQAPGKGLEWVAWINMYTGEPTYADDFKGRFTISRDDSKNTLYLQMNSLRAEDTAVYYCARLYNGNSLDYWGQGTLVTVSS
VL: DIQMTQSPSSLSASVGDRVTITCKSSQSLLNSGNQKSYLTWYQQKPGKAPKLLIYWASTLESGVPSRFSGSGSGTDFTLTISSLQPEDFATYYCQNAYSFPFTFGQGTKVEIK
B19: h5C9oaq (antibody, V domains shown)
VH: EVQLVESGGGLVQPGGSLRLSCAVSGYTFSMNWVRQAPGKGLEWVAWINMYTGEQTYADDFKGRFTISRDDSKNTLYLQMNSLRAEDTAVYYCARLYNGNSLDYWGQGTLVTVSS
VL: DIQMTQSPSSLSASVGDRVTITCKSSQSLLNWGNQKSYLTWYQQKPGKAPKLLIYWASTLFSGVPSRFSGSGSGTDYTLTISSLQPEDFATYYCQNAYSFPFTFGQGTKVEIK
B20: h5C9ov (antibody, V domains shown)
VH: EVQLVESGGGLVQPGGSLRLSCAVSGYTFSMNWVRQAPGKGLEWVAWINMYTGEPTYADDFKGRFTISRDDSKNTLYLQMNSLRAEDTAVYYCARLVKGNGFDYWGQGTLVTVSS
VL: DIQMTQSPSSLSASVGDRVTITCKSSQSLLNSGNQKSYLTWYQQKPGKAPKLLIYWASTLESGVPSRFSGSGSGTDYTLTISSLQPEDFATYYCQNAYSFPFTFGQGTKVEIK
B21: h5C9oq (antibody, V domains shown)
VH: EVQLVESGGGLVQPGGSLRLSCAVSGYTFSMNWVRQAPGKGLEWVAWINMYTGEPTYADDFKGRFTISRDDSKNTLYLQMNSLRAEDTAVYYCARLYRGNVMDYWGQGTLVTVSS
VL: DIQMTQSPSSLSASVGDRVTITCKSSQSLLNSGNQKSYLTWYQQKPGKAPKLLIYWASTLESGVPSRFSGSGSGTDYTLTISSLQPEDFATYYCQNAYSFPFTFGQGTKVEIK

Recombinant protein Claudin 18.2, sequence (chain, as listed by the source limits assumed, form in doubt): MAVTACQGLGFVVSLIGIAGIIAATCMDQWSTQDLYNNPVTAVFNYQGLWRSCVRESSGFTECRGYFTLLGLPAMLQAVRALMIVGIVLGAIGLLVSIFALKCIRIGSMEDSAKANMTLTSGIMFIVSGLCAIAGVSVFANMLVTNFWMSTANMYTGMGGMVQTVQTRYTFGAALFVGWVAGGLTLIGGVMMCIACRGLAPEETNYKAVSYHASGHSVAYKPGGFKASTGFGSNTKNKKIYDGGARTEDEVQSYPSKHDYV

The experiment has as its target Recombinant protein Claudin 18.2. In words: ELISA on plate-coated recombinant Claudin 18.2, OD450; Kd table under the graph, no unit in the table, unit from the x axis log[antibody] nM. (In general: ELISA stands for enzyme-linked immunosorbent assay.)
A word on the Kd: it is a measure of binding affinity in units of concentration. Consider B1, for which the Kd turned out to be 0.278 nM. The same measure for B2: 0.134 nM; for B3: 0.0715 nM; for B4: 0.0778 nM. For B5, the dissociation constant Kd was found to be 0.131 nM. Take B6: the Kd was found to be 0.0919 nM. Under B7 stands 0.189 nM; under B8, 0.0987 nM. The same measure for B9: 0.1 nM. Under B10 stands 0.109 nM; under B11, 0.079 nM. As for B12, the Kd came out at 0.0882 nM.

Regarding B13, the Kd was 0.122 nM. The same measure for B14: 0.0815 nM; for B15: 0.108 nM; for B16: 0.119 nM. In the case of B17, the Kd amounted to 0.103 nM. Under B18 stands 0.323 nM; under B19, 0.203 nM.

Turning to B20, the Kd turned out to be 0.107 nM. As to B21, the Kd stood at 0.107 nM.
